Measurements from the RNAGym collection of RNA variant scans (doi:10.7554/elife.80360).

B1: Twister Ribozyme (parent)
chain: AACACUGCCAAUGCCGGUCCCAAGCCCGGAUAAAAGUGGAGGGGGCGG

Variants of: B1
Assay: self-cleavage, relative activity (ratio to wild type); higher = more cleavage; co-transcriptional

Variant | self-cleavage
U12C C14G | 0.0887
U12C C14A | 0.818
G13U A40C | 0.129
G13U A40U | 0.16
G13C U18C | 0.0885
U12C A34U | 0.886
U12C A34G | 0.821
G13C C46G | 0.268
G13C C46A | 0.232
G13C C46U | 0.485
G13C G39A | 0.118
U12C A30C | 0.761
G13A U31A | 1.02
C14A G17U | 0.361
G13A U37A | 0.209
G13A U37C | 0.183
G13A U37G | 0.233
U12A G48C | 1.22
U12A G48A | 0.991
U12A G48U | 1.18
G13U G17U | 0.101
G13U G17A | 0.078
C14A A30U | 0.968
U12C C20G | 0.103

Variant | self-cleavage
U12C A23G | 0.486
U12A G43U | 0.477
U12A G43A | 0.298
U12C U37G | 0.72
U12C U37A | 0.747
G13U C25G | 0.0724
U12G C21G | 0.0698
U12G C21U | 0.0878
U12G C21A | 0.0849
C14A G36A | 0.651
C14A G36U | 0.221
C14A G36C | 0.351
G13U G47U | 0.197
C14A A35C | 0.863
C14A A35U | 0.789
U12G G42C | 0.369
U12C G39U | 0.222
U12C G39C | 0.127
U12C G39A | 0.609
U12C C19U | 0.951
U12G A23G | 0.502
G13A G48A | 0.659
C14A C46A | 0.773
C14A C46U | 0.827

Variant | self-cleavage
C14A C21U | 0.138
G13U A32C | 0.595
G13A C27G | 0.073
G13C G48C | 0.249
G13C G48A | 0.115
G13C G48U | 0.217
G13A A22G | 0.107
C14A C15A | 0.885
C14A C15G | 0.31
C14A C15U | 0.746
U12C G42C | 0.486
U12C G42U | 0.331
U12C G42A | 0.42
U12G A34C | 0.287
G13A C19G | 0.123
U12G U18G | 0.0252
C14A C27U | 0.75
G13C A35U | 0.629
G13C A35C | 0.403
G13C A35G | 0.139
U12C C15A | 0.739
U12C C15G | 0.0964
U12G A30G | 0.783
U12G A30U | 0.812

Variant | self-cleavage
U12C G44A | 0.852
U12C G44U | 0.902
C14A G28U | 0.854
C14A G28A | 0.818
C14A G28C | 0.757
G13U G24C | 0.0723
G13U C20A | 0.0934
G13U C20G | 0.1
G13C C20G | 0.0962
G13C C20A | 0.0483
G13C C20U | 0.125
G13C G45U | 0.144
G13C C26A | 0.0939
G13C C26U | 0.0884
G13C A32G | 0.255
G13C A32C | 0.159
U12C C27A | 0.577
U12C C27G | 0.0656
C14A G39C | 0.154
C14A G39U | 0.198
U12G A40G | 0.163
U12C G24U | 0.168
U12C G24C | 0.0606
G13U G29A | 0.368

Variant | self-cleavage
G13U G39C | 0.11
G13U G39U | 0.0998
G13A C15A | 0.46
C14A A23U | 0.508
C14A A23G | 0.525
U12C G48A | 0.952
U12C G48C | 1.18
U12C G48U | 1.03
G13U U37G | 0.119
G13U U37A | 0.133
U12C A32U | 0.835
U12C A32C | 0.982
U12C A32G | 1.24
G13A G17C | 0.0471
G13A G17U | 0.108
G13U U31C | 0.639
U12C U18A | 0.474
U12C U18C | 0.564
G13A C26U | 0.142
G13A G38U | 0.463
G13C G24A | 0.0986
G13C G24C | 0.0811
G13A C20U | 0.262
G13A C20A | 0.09

Variant | self-cleavage
G13A C20G | 0.115
G13C C14U | 0.408
G13C C14G | 0.334
U12A G44A | 1.04
U12A G44U | 1.05
U12A G44C | 1.19
U12A G39U | 0.242
U12A G39A | 0.677
U12A G39C | 0.127
G13A C46G | 0.848
G13A C46A | 0.715
G13C U31C | 0.552
U12C | 0.961
U12G | 0.946
C14A A40U | 0.143
U12G G44U | 0.799
U12G G44C | 0.681
U12G G44A | 0.784
G13A C21A | 0.0879
G13A G16A | 0.352
G13A G16C | 0.106
U12A G47U | 1.05
U12A G47A | 1.13
U12G A22G | 0.316

Variant | self-cleavage
G13U A23G | 0.0827
U12G G16A | 0.864
U12G G16U | 0.937
G13U C14G | 0.512
G13U C14A | 0.687
C14A C26G | 0.118
G13C C27U | 0.0915
G13C C27A | 0.0712
U12C G45C | 0.584
U12C G45U | 0.973
C14A C25U | 0.699
C14A C25A | 0.242
C14A C25G | 0.657
U12C G16U | 0.799
U12C G16A | 0.938
U12G C26A | 0.589
G13C A40C | 0.0965
U12C G28A | 0.829
U12C G28C | 0.814
U12G G29C | 0.677
U12G G29A | 0.622
G13U A34C | 0.083
G13U A34U | 0.199
